Non-standard residues stand in square brackets, D forms with d. No end group written: not given here.
Legend:
Assay type in all cases: binding
Apo-A1 lipoprotein = molecular target: T1, Apo-A1 lipoprotein (Homo sapiens, UniProt P02647); assay: Apo-A1 lipoprotein purification from fibrinogen-depleted plasma on peptide resin column (Example 4); conditions: for removal / depletion of Apo-A1 lipoprotein in flow-through: fibrinogen-depleted plasma, 14 ml on 2.3 ml resin, SDS-PAGE
T1 construct: from tissue; host or cells: human plasma (whole or fibrinogen-depleted)
Procedure: (§1) Apo-A1 lipoprotein purification was accomplished with D-WWLHIN (SEQ ID NO: 33) peptides and several analogs. Indeed, about 100% Apo-A1 lipoprotein depletion from plasma was repeatedly obtained with D-WWLHAN (SEQ ID NO: 56) and D-WWLHIN (SEQ ID NO: […]). Fourteen milliliters of fibrinogen-depleted plasma was loaded onto a 2.3 ml column (CF=0.785 cm^2) at 0.4 ml/min. (LV=30 cm/H; RT=5.8) that had been equilibrated with 0.14 M NaCl, 0.020 M sodium citrate, pH 7.0 (EQ buffer). After the column was washed with EQ buffer to baseline, Apo-A1 lipoprotein was eluted with 2.0 M NaCl, 1% Tween-20, 0.020M sodium citrate, pH 7.0. The column was regenerated with 2.0 M guanidine-HCl, 2% Sarkosyl, and 2% acetic acid and stored in 20% methanol.

API = molecular target: T2, API (Homo sapiens, UniProt P01009); assay: API recovery in Apo-A1 purification run (Example 4); conditions: load 10.6 mg
T2 construct: from tissue; host or cells: human plasma (whole, fibrinogen-depleted or F1-Apo-depleted)
Procedure: as §1

albumin = molecular target: T3, albumin (Homo sapiens, UniProt P02768); assay: Albumin recovery in Apo-A1 purification run (Example 4); conditions: load 372 mg
T3 construct: from tissue; host or cells: human plasma (fibrinogen-depleted or F1-Apo-depleted)
Procedure: as §1

T1 sequence (P02647 25-267 limits assumed): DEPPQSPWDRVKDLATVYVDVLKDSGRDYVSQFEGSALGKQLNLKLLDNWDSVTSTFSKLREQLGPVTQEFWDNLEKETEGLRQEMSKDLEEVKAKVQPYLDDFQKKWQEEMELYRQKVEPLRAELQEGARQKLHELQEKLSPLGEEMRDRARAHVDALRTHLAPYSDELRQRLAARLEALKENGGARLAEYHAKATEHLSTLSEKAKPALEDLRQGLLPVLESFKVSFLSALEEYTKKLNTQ
T2 sequence (P01009 25-418): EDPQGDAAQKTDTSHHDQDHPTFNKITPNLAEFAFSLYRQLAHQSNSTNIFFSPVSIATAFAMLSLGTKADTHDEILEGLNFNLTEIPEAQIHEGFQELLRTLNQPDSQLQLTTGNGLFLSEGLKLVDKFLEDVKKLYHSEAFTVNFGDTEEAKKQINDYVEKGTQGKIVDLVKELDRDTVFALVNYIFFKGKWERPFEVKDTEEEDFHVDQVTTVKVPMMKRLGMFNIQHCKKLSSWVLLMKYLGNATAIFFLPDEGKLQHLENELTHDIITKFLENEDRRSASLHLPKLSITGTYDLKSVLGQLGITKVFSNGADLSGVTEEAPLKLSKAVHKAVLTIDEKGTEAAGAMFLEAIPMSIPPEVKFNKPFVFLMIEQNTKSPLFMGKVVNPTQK

Apo-A1 Elution (Apo-A1 lipoprotein; 2.0 M NaCl, 1% Tween-20 eluate, load 12.9 mg): 9.1 mg
removal / depletion of Apo-A1 lipoprotein in flow-through (Apo-A1 lipoprotein): Complete Apo-A1 lipoprotein depletion
removal / depletion of Apo-A1 lipoprotein in flow-through (Apo-A1 lipoprotein; listed as WFLHIN): complete removal
API Flow Through (API): 12.5 mg
Albumin Flow Through (albumin): 386 mg
Substance: WFLHIN ([dW]FLHIN; not fully specified (residues 2, 3, 4, 5, 6)) [D-WFLHIN]

Source: patent US7223734B2, “Plasma protein-binding ligands” (The American National Red Cross, priority 2002, dated 2007)
